# Measurements from PMC10741561.
# B1: WT-Sx4-GST (C-terminally GST-tagged Syntaxin 4 cytosolic domain) [not stated] / His-SNAP23 (N-terminally His-tagged SNAP23) [not stated] (parent)
# chain 1: MRDRTHELRQGDNISDDEDEVRVALVVHSGAARLGSPDDEFFQKVQTIRQTMAKLESKVRELEKQQVTILATPLPEESMKQGLQNLREEIKQLGREVRAQLKAIEPQKEEADENYNSVNTRMKKTQHGVLSQQFVELINKCNSMQSEYREKNVERIRRQLKITNAGMVSDEELEQMLDSGQSEVFVSNILKDTQVTRQALNEISARHSEIQQLERSIRELHEIFTFLATEVEMQGEMINRIEKNILSSADYVERGQEHVKIALENQKKARKKKV
# chain 2: MDNLSPEEVQLRAHQVTDESLESTRRILGLAIESQDAGIKTITMLDEQGEQLNRIEEGMDQINKDMREAEKTLTELNKCCGLCICPCNRTKNFESGKNYKATWGDGGDNSPSNVVSKQPSRITNGQPQQTTGAASGGYIKRITNDAREDEMEENLTQVGSILGNLKNMALDMGNEIDAQNQQIQKITEKADTNKNRIDIANTRAKKLIDS
# Variants of: B1
# Assay: GST pull-down (glutathione sepharose), immunoblot, ImageJ quantification
# Settings: with His-SNAP23 (N-terminally His-tagged SNAP23); 30 min; 1–5 μg Sx4-GST variant on beads, excess His-SNAP23, 4 °C; read off a plot
row,response (relative amount bound),Variant
1,0.77,chain 1 L173A E174A

# Same assay, conditions: with His-SNAP23 (N-terminally His-tagged SNAP23); 60 min; 1–5 μg Sx4-GST variant on beads, excess His-SNAP23, 4 °C; read off a plot
row,response (relative amount bound),Variant
1,1.7,chain 1 L173A E174A
